Assay [1] concerns the target his-HCF[K919I, A933L], His-tagged myosin heavy chain fragment with coiled-coil stabilizing mutations (Mus musculus). The assay can be described thus: SEC.
The target of assay [2] is his-HCF, His-tagged myosin heavy chain fragment K810-E934 (Mus musculus). The assay can be described thus: pull-down.
Assay [3] addresses his-HCF[K919I, A933L], His-tagged myosin heavy chain fragment with coiled-coil stabilizing mutations (Mus musculus). Kind of assay: pull-down.

The term stoichiometry N denotes the number of molecules, sites or subunits per partner or assembly. On to “his-HCF[K919I, A933L], His-tagged myosin heavy chain fragment with coiled-coil stabilizing mutations (domain or fragment)”, for which, in assay [1], the stoichiometry N is 2.

B1: myosin regulatory light chain without His-tag (RLC), P97457 1-169 (natural protein)
chain: MPKCAKRRAGAEGSSNVFSMFDQTQIQEFKEAFTVIDQNRDGIIDKEDLRDTFAAMGRLNVKNEELDAMMKEASGPINFTVFLTMFGEKLKGADPEDVITGAFKVLDPEGKGTIKKQFLEELLTTQCDRFSQEEIKNMWAAFPPDVGGNVDYKNICYVITHGDAKDQE
modifications: not checked
Molecule B1 came in with a stoichiometry N (RLC per his-HCF) in assay [2] of 1. In addition, in assay [3], the stoichiometry N (RLC per his-HCF[K919I, A933L]) was 1.

The record behind these values is paper PMC6699511.
